Experimental data as given in article PMC10897455, “TMEM25 is a Par3-binding protein that attenuates claudin assembly during tight junction development” (EMBO Reports, 2023).

Target: the molecule itself
Assay: pull-down; GST- and MBP-tagged TMEM25-ECR incubated for 1 h at 4 °C in 150 mM NaCl, 0.1% Triton X-100, 20 mM Tris-HCl pH 7.6; glutathione-Sepharose beads; CBB staining or anti-MBP immunoblot

B1: TMEM25-ECR (residues 27–220), GST- or MBP-tagged (domain or fragment, human, UniProt Q86YD3 27-220, looked up)
chain: ELEPQIDGQTWAERALRENERHAFTCRVAGGPGTPRLAWYLDGQLQEASTSRLLSVGGEAFSGGTSTFTVTAHRAQHELNCSLQDPRSGRSANASVILNVQFKPEIAQVGAKYQEAQGPGLLVVLFALVRANPPANVTWIDQDGPVTVNTSDFLVLDAQNYPWLTNHTVQLQLRSLAHNLSVVATNDVGVTSAS
notes: extracellular region (ECR), residues 27–220; bacterially expressed, non-glycosylated; also called GST–TMEM25-ECR; MBP–TMEM25-ECR; source: E. coli BL21, purified (glutathione-Sepharose 4B or amylose resin)
binding result: binds
